One molecule from paper PMC7527988, “Cell-free biogenesis of bacterial division proto-rings that can constrict liposomes” (Communications Biology, 2020) can be followed below.

The assay addresses T1, FtsZ labelled with Alexa Fluor 647 (E. coli, UniProt P0A9A6 1-383, Alexa Fluor 647 label, 0.9 ± 0.2 mol of fluorophore per mol of protein).
T1 construct: FtsZ, Escherichia coli cell division protein; called wild-type in the discussion; The label was added to the polymerised protein; also called FtsZ-A647
T1 sequence (looked up): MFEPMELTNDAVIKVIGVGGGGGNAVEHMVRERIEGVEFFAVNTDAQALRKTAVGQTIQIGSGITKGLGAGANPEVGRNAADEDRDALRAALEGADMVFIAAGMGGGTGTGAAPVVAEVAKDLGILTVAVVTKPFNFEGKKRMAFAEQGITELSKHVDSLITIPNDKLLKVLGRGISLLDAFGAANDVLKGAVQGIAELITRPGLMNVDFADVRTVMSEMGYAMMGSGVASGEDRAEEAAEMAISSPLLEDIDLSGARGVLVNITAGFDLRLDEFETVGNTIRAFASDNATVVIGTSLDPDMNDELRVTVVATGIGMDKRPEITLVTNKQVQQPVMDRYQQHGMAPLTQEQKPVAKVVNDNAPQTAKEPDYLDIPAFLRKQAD
The assay can be described thus: recruitment to a supported lipid bilayer, fluorescence microscopy; 1 µM purified sZipA-A488 first incubated on the SLB with DGS-NTA lipids, washed; 3 µM purified FtsZ-A647 with 2 mM GTP added in minimal reaction buffer or PUREfrex2.0, with 50 g/L Ficoll70 or cell-free synthesized ZapA; spinning disk microscopy at room temperature. The conditions noted are these: both partners purified.

B1: soluble ZipA labelled with Alexa Fluor 488 (domain or fragment)
chain: not shown
modifications: Alexa Fluor 488 label, 0.9 ± 0.2 mol of fluorophore per mol of protein
notes: Held on the supported lipid bilayer through the His6-tag and DGS-NTA lipids; also called sZipA-A488; sZipA; not shown: His6, N-terminal, kept
Regarding B1, the binding result was “binds”.
